The target in experiment [1] is Cys-min α7 nAChR (human α7 nAChR containing only the C128-C142 and C190-C191 cysteines) (human) (UniProt P36544). As to the kind of experiment: SPR.
Experiment [2] addresses wild-type human α7 nicotinic acetylcholine receptor (human, UniProt P36544 23-502). As to the kind of experiment: SPR. On the technique in general: Surface plasmon resonance follows binding to a sensor surface in real time, without labels.

For orientation: Kd means the constant that tells how readily two partners part at equilibrium. A lower Kd goes with a tighter complex.

Turning to “PDZ domain of PICK1 (first 126 amino acids of PICK1) (from UniProt Q9NRD5 1-126) (domain or fragment)”, the Kd in experiment [1] was 2.6 µM.

B1: PDZ domain of PICK1 (first 126 amino acids of PICK1) (domain or fragment, UniProt Q9NRD5 1-126, looked up)
chain: MFADLDYDIEEDKLGIPTVPGKVTLQKDAQNLIGISIGGGAQYCPCLYIVQVFDNTPAALDGTVAAGDEITGVNGRSIKGKTKVEVAKMIQEVKGEVTIHYNKLQADPKQGMSLDIVLKKVKHRLV
Turning to B1, the Kd in experiment [2] amounted to 2.5 ± 0.4 µM.

The values above are taken from PMC7057392 (ACS chemical neuroscience, 2020).
